The text below walks through data of patent US20050209141A1.

For data set [1], the target named is guinea pig angiotensin type 1 receptor on cardiac sympathetic nerve endings (guinea pig). The experiment in a line: cell-based or functional assay.
Data set [2] has as its target angiotensin II receptor (AT1AR) transfected into human neuroblastoma SH-SY5Y cells (SH-SY5Y-AT1A cells). The experiment in a line: cell-based or functional assay.
For data set [3], the target named is T1, human angiotensinogen (Sigma), P01019.
T1 chain: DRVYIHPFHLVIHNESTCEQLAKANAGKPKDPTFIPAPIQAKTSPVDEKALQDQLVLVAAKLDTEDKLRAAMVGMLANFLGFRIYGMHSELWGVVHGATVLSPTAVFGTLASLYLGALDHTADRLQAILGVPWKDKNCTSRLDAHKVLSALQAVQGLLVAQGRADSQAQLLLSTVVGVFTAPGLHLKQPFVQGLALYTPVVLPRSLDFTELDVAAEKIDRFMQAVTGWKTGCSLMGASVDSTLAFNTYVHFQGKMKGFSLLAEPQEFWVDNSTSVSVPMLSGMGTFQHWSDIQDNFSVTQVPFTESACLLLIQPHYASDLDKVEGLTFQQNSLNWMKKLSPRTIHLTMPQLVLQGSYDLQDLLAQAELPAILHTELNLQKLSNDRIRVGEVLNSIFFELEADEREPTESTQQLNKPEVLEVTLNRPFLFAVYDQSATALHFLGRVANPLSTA

The molecule angiotensin II (peptide) came in with a norepinephrine release from guinea-pig cardiac sympathetic nerve endings in data set [1] of 27%. The release of [3H]MPP+ from SH-SY5Y-AT1A cells in data set [2] came to 20%.

B1: human renin of the human mast cell line HMC-1 (cells, lysate and releasate) (protein)
chain: LTLGNTTSSVILTNYMDTQYYGEIGIGTPPQTFKVVFDTGSSNVWVPSSKCSRLYTACVYHKLFDASDSSSYKHNGTELTLRYSTGTVSGFLSQDIITVGGITVTQMFGEVTEMPALPFMLAEFDGVVGMGFIEQAIGRVTPIFDNIISQGVLKEDVFSFYYNRDSENSQSLGGQIVLGGSDPQHYEGNFHYINLIKTGVWQIQMKGVSVGSSTLLCEDGCLALVDTGASYISGSTSSIEKLMEALGAKKRLFDYVVKCNEGPTLPDISFHLGGKEYTLTSADYVFQESYSSKKLCTLAIHAMDIPPPTGPTWALGATFIRKFYTEFDRRNNRIGFALAR
With B1, in data set [3], the “ANG I activity of HMC-1 releasate with 240 nM angiotensinogen, with or without BILA2157” value is listed as “about 70% of the ANG I activity measured in the presence of 240 nM angiotensinogen, is due to BILA2157-sensitive renin”; the “ANG I formed (renin activity) by RIA” value was “The amount of ANG I formed increased with angiotensinogen concentration”; the “ANG I formed (renin activity) by RIA, with or without BILA2157 (100 nM)” value is “˜70% of the total ANG I formed originates from renin”.
